The values below come from the supplement of paper PMC12042874.

± gives the uncertainty stated by the source.

A short description of this data set: amyloid nucleation score (Sup35N fusion, yeast selection) (log enrichment); library NNK3; higher = more nucleation; inactive = no reads after selection. The method in brief: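 Yeast lacking psi expressed peptides of 20 random codons fused to Sup35N, received 100 μM copper sulfate for 24 hours, and were then grown for 7 days at 30°C on medium lacking adenine and uracil. Illumina sequencing of input and output plasmid inserts provided the reads. Nucleation scores are DiMSum log enrichments of output over input, centred on the mode of non-aggregating sequences. Any sequence with under 100 input reads was excluded.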

For the substance NNMVHVVDKFFSLILVMVFS, the amyloid nucleation score entry is “inactive”.
Substance GSRVN displayed an amyloid nucleation score of -0.352 ± 0.36.
Substance IIGTLSRMLDIGIIFVTT had an amyloid nucleation score of -0.154 ± 0.88.
With TFDFPHIRRLEFKFAI the entry was “inactive”; with RVTGTCGFRRDGFESWRNTR, “inactive”; with EVKGTCWVCVLVHVATSYVG, 0.65 ± 0.21.
For the substance TNRFIFPFLNVTHAVLFIFT, the amyloid nucleation score amounted to 1.02 ± 0.19.
Turning to YWFDSPPSFRAYPCWNR, the amyloid nucleation score result is “inactive”.
As to LHVSWGGLSGDTLFTRKVGV, the amyloid nucleation score entry was “inactive”.
On to MSQKEGFSDTGLLLRRSTRS, for which the amyloid nucleation score result was “inactive”.
With FNFTVSRVPISVMVLQKRRK the figure was 1.18 ± 0.086; with VYRLEVDISTILEGWSG, “inactive”.
SRRSSS gave an amyloid nucleation score of 1.28 ± 0.11.
Next, TRWQRCSAIPPVGEA: “inactive”; VLGPLQLRRIAHETGRCNAM: “inactive”; MCGCARLFVSLSATAKTNP: -0.003 ± 1.1.
Turning to WILLGNGSMNMKSCFMLLFV, the amyloid nucleation score entry is “inactive”.
With LVPVMTFNWPKPSNGVSAVA, the amyloid nucleation score was -0.413 ± 1.
With HQIFYVFEYEYSKRLLCMWW the entry was “inactive”; with QLFVRVIWDMP, 0.186 ± 0.45; with SYTIVERAIRWYPPT, 0.966 ± 0.11.
Take SILDWYVSVVRRGA: the amyloid nucleation score entry is “inactive”.
On to SEICF, for which the amyloid nucleation score entry is “inactive”.
As to FLDFTWMKHGTLALPQAAHQ, the amyloid nucleation score result is “inactive”.
Regarding RGSGWRTYVCTGSYALRV, the amyloid nucleation score result is “inactive”.
Regarding VFCVRRSLQNLRNSGNDSHR, the amyloid nucleation score entry was “inactive”.
On to AYYNMK, for which the amyloid nucleation score is -0.111 ± 0.21.
As for TIFEAA, the amyloid nucleation score entry is “inactive”.
LKNPARYYYVVQIFMVLSTA: the amyloid nucleation score entry is “inactive”.
Regarding VTWAAMWASRRVIQVITLRL, the amyloid nucleation score entry was “inactive”.
Next, YLSSIW: “inactive”; ILKVLFKF: 1.13 ± 0.1; NTRSPAESMHHPLMAMAVKN: “inactive”.
As for VTRIW, the amyloid nucleation score result was “inactive”.
Turning to SARRTVYLFQNSHRVHPFLF, the amyloid nucleation score result was “inactive”.
For the substance MSCLG, the amyloid nucleation score entry is “inactive”.
On to HWILSTPCLNVV, for which the amyloid nucleation score result was “inactive”.
Take EICSSNKRQRLKRVMEVIFC: the amyloid nucleation score result is “inactive”.
Consider GMCVGDLEAQTSEGTSNESW, for which the amyloid nucleation score entry is “inactive”.
On to VSETMWMSFLTVSFELRVDG, for which the amyloid nucleation score result is “inactive”.
KLMPVIVTFNRYFFGQVMEE gave an amyloid nucleation score of 1.2 ± 0.14.
In turn, DACTVVCVCIQSIRGSQVSC showed an amyloid nucleation score of 1.09 ± 0.15.
Consider PSYFEYFVRIGFFG, for which the amyloid nucleation score result is “inactive”.
On to LSLNSEVFGLSSTSNTVPFD, for which the amyloid nucleation score result is “inactive”.
As to ICNFHSSRPLNIS, the amyloid nucleation score entry was “inactive”.
For VRRCNTCLQ, the amyloid nucleation score entry is “inactive”.
For the substance GYTMRG, the amyloid nucleation score entry was “inactive”.
For the substance CNVRSFRFRCSGSPHSARSS, the amyloid nucleation score entry is “inactive”.
Turning to AEGYFRSLSTIRGSLLDLSA, the amyloid nucleation score entry is “inactive”.
With YPHLMK the figure was 1.54 ± 0.12.
DWHAIFTMFECNMQRGKSAR: the amyloid nucleation score is 0.113 ± 0.31.
On to NSDMESDSHSNKVVRYLCGP, for which the amyloid nucleation score result was “inactive”.
On to LCTLSCFAICD, for which the amyloid nucleation score was 0.74 ± 0.18.
Take MFKNILCVHVLTSAGT: the amyloid nucleation score entry is “inactive”.
Next, GSRCCNSAFNKECLSITEHS: -0.485 ± 0.8.
As to RGLYKVD, the amyloid nucleation score result is “inactive”.
RYWWYHSYRNGSGSLESYGV: the amyloid nucleation score entry is “inactive”.
Turning to NTTCYIVRVMYVPHG, the amyloid nucleation score entry was “inactive”.
In the case of TEPRMLGMCPAVVERMRVEG, the amyloid nucleation score result was “inactive”.
Next, FVFGN: “inactive”; LKIFKCI: “inactive”; LVSSMMIHVYFNEVLVFMIC: 0.796 ± 0.1.
GYAADMIFYQGHHMKISMFR registered an amyloid nucleation score of 1.08 ± 0.15.
As to WNMNYVQFDGNVLVNAD, the amyloid nucleation score result is “inactive”.
For the substance RIGAYYPMFIFAVLVGSALG, the amyloid nucleation score entry is “inactive”.
With FILYMCKCS, the amyloid nucleation score entry was “inactive”.
TAVLH: the amyloid nucleation score result is “inactive”.
Consider HFFNPCQGHRNKVPRRAS, for which the amyloid nucleation score entry is “inactive”.
Turning to PLRSTKSIIVLMDEMRLIAN, the amyloid nucleation score entry is “inactive”.
With LNIRGSFCFYGSWIVADFHM, the amyloid nucleation score was determined as 0.336 ± 0.38.
For the substance DGLYSTNQRSIAPHLTQPID, the amyloid nucleation score entry is “inactive”.
With VEPDRERKENVC the entry was “inactive”; with SACEMWATRHKNWRASGYNH, “inactive”; with LDKAHHHLETAKLLLAWGVI, “inactive”.
With MSILMMSL, the amyloid nucleation score result was “inactive”.
Turning to ALLFLIERALCPSCK, the amyloid nucleation score result was “inactive”.
HYSLNASIYSTCTRTSMNPV: the amyloid nucleation score was -0.136 ± 0.53.
As for WAFSVKKWRTVLRKCILQWG, the amyloid nucleation score entry was “inactive”.
Regarding EGSIQMWTGTSLLDTRIWGG, the amyloid nucleation score entry is “inactive”.
On to YALIQIPKYRLGCRGWTMRG, for which the amyloid nucleation score is 0.172 ± 0.27.
As for PVTDLWLTFS, the amyloid nucleation score entry is “inactive”.
With SDYENTRTNDNDHICVLSVG the entry was “inactive”; with LGKGICKSTWLQQCRGKSDF, “inactive”; with RLTTLPIRSPFTLGYTFARK, “inactive”.
With MKLINRDFSL the entry was “inactive”; with SFTYTRQSGSNLEAVGTFPH, -0.373 ± 0.69.
With RVRLIH, the amyloid nucleation score entry is “inactive”.
Take CKTMFYY: the amyloid nucleation score result was “inactive”.
With DHFMNGMKQYTCRYFVLWPS the entry was “inactive”; with ICYIPY, “inactive”.
Turning to YFPGGTLDY, the amyloid nucleation score result was “inactive”.
For FRGCYRFELLSDTCISRELV, the amyloid nucleation score entry was “inactive”.
For the substance STWTWMPHKERHITLSKEFW, the amyloid nucleation score result was “inactive”.
Next, RLLSKVSNFREYTSSSVPDV: “inactive”; RITKRRHSVIPCP: “inactive”; KVIDGVDAMWCMKVFWV: “inactive”.
Consider HIYRYLMS, for which the amyloid nucleation score entry was “inactive”.
In the case of ADLPCDVATNLVPLTRSSQM, the amyloid nucleation score result is “inactive”.
For the substance MGYCLGNDGSIKALFLVVNV, the amyloid nucleation score entry is “inactive”.
Turning to NYAYPIPIRLLIEAWRMGTA, the amyloid nucleation score entry is “inactive”.
For WYHGKWYLDLNYVVPVTQWK, the amyloid nucleation score result was “inactive”.
Next, FMDFRSYITGHNWIHAAWPA: “inactive”; VYDDSTIDT: “inactive”.
Next, RQIVKPASQVILCRCLCTGA: 1.04 ± 0.1; WRGYPFAPVFYLI: “inactive”.
The substance LYCRLCVSIFM showed an amyloid nucleation score of -0.02 ± 1.1.
Regarding WPGLRCDSGQDKRNMF, the amyloid nucleation score is -0.039 ± 1.
Take RCDIFTTTFEFREVHCLWVG: the amyloid nucleation score result is “inactive”.
Consider VFICSAVTNNSWCERLDFSA, for which the amyloid nucleation score was 1.5 ± 0.14.
Take CPMVLSQEGSTAPEQCVGLG: the amyloid nucleation score result is “inactive”.
With LSDAR the entry was “inactive”; with FFIYVQTGPS, -0.922 ± 1.5; with AGWNMLVMTLCSTLFSQY, “inactive”.
Consider GSGTGNALLQLGLTSIFTFS, for which the amyloid nucleation score result is “inactive”.
Substance KYGVLLRIHR had an amyloid nucleation score of 0.499 ± 0.72.
In the case of GDMQMW, the amyloid nucleation score entry was “inactive”.
For the substance TGSLWRNHCLVVPQVRYGRK, the amyloid nucleation score was -0.017 ± 0.5.
With GIIHDVMDTTNGKIVSS the entry was “inactive”; with SMLSAIMGSS, “inactive”; with FMPTVQVRLQC, “inactive”.
In the case of KIFTWIRCNLSIFYSYGFKS, the amyloid nucleation score result was “inactive”.
Turning to HDAVLI, the amyloid nucleation score result was “inactive”.
In the case of DYTRKVHTIEGSSYYWLNFS, the amyloid nucleation score was 1.36 ± 0.078.
As to KSGYCNKCMNGFSGTLTSNY, the amyloid nucleation score result is “inactive”.
On to RCVSFTLKIGLIFKQTPSCR, for which the amyloid nucleation score result was “inactive”.
For the substance YFYSHRYI, the amyloid nucleation score entry is “inactive”.
Substance FKITEYVSFNGTRPDNISMN showed an amyloid nucleation score of -0.082 ± 0.85.
Next, SRKLCSHR: -0.557 ± 0.66; YIFDMSTGQDSMVY: “inactive”.
As for NCGNAPFGFVRP, the amyloid nucleation score entry was “inactive”.
Turning to IASAYLSVLRYPFRIAKGLI, the amyloid nucleation score entry was “inactive”.
As for LIVFWDGFMCT, the amyloid nucleation score entry is “inactive”.
For the substance HRVDND, the amyloid nucleation score result is “inactive”.
With HLFGDFDKWVDKLWRYNRVD the figure was 0.985 ± 0.21; with SIRDYSFIASSC, “inactive”.
